# Measurements published in patent US20190248877A1 (Hoffmann-La Roche, published 2019).
# B1: anti-TnC clone 18D4 Fab fragment (Fab, V domains shown)
# VH: QVQLVQSGAEVKKPGSSVKVSCKASGGTFSSYAISWVRQAPGQGLEWMGGIIPIFGTANYAQKFQGRVTITADKSTSTAYMELSSLRSEDTAVYYCAKGNFYGGLDYWGQGTTVTVSS
# VL: DIQMTQSPSTLSASVGDRVTITCRASQSISSWLAWYQQKPGKAPKLLIYDASSLESGVPSRFSGSGSGTEFTLTISSLQPDDFATYYCQQNKKFPSGTFGQGTKVEIK
# Key:
# Test in all cases: SPR Biacore T200, biotinylated TnC on SA chip, Fab as analyte, 1:1 fit
# [1] = biological target: T1, cynoTNC (recombinant cynomolgus TnC antigen) (cynomolgus, biotin on the C-terminal avi-tag where used biotinylated (Example 5))
# T1 construct: GST may have been cleaved off by thrombin; The text says this construct lacks the C domain
# T1 chain: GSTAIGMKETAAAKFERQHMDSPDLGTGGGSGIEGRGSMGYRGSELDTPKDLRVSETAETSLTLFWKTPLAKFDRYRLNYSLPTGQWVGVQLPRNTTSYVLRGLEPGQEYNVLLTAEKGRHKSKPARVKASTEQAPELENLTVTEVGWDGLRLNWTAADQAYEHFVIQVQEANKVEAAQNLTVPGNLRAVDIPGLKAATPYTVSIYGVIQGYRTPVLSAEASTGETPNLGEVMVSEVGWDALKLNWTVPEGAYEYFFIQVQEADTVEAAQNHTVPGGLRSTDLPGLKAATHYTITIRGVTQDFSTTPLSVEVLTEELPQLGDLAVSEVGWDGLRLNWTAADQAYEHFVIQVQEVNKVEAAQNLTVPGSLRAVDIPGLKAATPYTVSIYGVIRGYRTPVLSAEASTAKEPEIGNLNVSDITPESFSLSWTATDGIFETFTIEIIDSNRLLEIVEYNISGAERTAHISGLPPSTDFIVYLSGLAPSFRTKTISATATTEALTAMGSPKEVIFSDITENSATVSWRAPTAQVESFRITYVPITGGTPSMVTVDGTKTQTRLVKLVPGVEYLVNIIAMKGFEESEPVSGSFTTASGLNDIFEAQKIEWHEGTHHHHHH
# Method: (§1) Binding of the anti-TnC IgGs 18D4, 11C7 and the Fab fragment of anti-TnC 18D4 to human, murine and cynomolgus TnC (antigens according to Table 4) was assessed by surface plasmon resonance (SPR). All SPR experiments were performed on a Biacore T200 at 25° C. with HBS-EP as running buffer (0.01 M HEPES pH 7.4, 0.15 M NaCl, 3 mM EDTA, 0.005% Surfactant P20, Biacore, Freiburg/Germany).
# (§2) A 20 μg/ml stock solution of biotinylated human, murine or cynomolgus TnC was injected on a SA chip, with the aim to immobilize up to 100 RU using the immobilization wizard function.
# (§3) An additional dissociation step of 1800s was performed for the highest concentration of IgG. After each step the surface was regenerated following two sequential injections of 10 mM glycine pH2.1 for 60 s. Bulk refractive index differences were corrected for by subtracting the response obtained in a reference flow cell without TNC. Affinity and avidity were calculated using the Langmuir 1:1 kinetic model. However, as the KD for the 1:1 fitting of bivalent interactions is an apparent value only, it should only be used for comparisons.
# [2] = biological target: T2, muTNC (recombinant murine TnC antigen) (mouse, biotin on the C-terminal avi-tag where used biotinylated (Example 5))
# T2 construct: GST may have been cleaved off by thrombin; The text says this construct lacks the C domain; also called mouse TnC
# T2 chain: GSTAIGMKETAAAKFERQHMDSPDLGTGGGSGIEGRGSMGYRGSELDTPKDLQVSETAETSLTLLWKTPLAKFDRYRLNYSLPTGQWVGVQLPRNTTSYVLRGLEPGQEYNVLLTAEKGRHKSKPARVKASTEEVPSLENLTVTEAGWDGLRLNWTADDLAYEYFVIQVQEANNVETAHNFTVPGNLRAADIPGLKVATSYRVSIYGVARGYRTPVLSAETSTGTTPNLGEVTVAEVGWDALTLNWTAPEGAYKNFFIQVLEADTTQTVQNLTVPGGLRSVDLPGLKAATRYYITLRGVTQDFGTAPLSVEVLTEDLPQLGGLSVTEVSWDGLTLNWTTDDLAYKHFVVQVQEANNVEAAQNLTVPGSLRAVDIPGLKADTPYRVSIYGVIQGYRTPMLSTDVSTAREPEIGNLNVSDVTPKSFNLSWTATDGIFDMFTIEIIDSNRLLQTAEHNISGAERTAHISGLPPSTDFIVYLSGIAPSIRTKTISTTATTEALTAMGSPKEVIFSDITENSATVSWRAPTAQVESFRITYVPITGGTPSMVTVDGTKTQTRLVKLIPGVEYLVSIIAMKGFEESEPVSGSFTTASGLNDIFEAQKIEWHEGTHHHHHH
# Method: as §1, §2, §3
# [3] = biological target: T3, huTNC (recombinant human TnC antigen) (human, UniProt P24821 984-1798, biotin on the C-terminal avi-tag where used biotinylated (Examples 5 and 10))
# T3 sequence: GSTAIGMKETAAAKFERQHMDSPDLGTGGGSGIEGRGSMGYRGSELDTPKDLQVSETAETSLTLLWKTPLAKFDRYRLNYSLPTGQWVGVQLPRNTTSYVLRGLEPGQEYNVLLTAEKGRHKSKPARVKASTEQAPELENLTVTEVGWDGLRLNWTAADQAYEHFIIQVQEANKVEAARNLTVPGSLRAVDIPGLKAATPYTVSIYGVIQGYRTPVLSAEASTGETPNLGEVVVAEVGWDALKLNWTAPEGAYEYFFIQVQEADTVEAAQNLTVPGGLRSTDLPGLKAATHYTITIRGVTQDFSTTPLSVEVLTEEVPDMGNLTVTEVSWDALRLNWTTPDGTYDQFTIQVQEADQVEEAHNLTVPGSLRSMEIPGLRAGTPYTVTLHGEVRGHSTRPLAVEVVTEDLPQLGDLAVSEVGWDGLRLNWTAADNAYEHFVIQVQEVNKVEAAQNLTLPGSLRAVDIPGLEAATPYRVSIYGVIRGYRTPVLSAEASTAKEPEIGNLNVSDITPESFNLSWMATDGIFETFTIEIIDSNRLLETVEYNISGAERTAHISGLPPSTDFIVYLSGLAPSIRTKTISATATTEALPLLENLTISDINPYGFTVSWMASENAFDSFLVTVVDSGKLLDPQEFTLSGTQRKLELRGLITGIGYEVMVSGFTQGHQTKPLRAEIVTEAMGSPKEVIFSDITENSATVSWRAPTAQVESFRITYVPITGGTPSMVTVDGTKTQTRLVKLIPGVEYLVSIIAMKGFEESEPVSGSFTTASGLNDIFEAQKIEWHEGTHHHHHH
# Method: as §1, §2, §3
binder,measurement,setting,value
B1,Kd,[1],6.69 nM
same,Kd,[2],6.5 nM
same,Kd,[3],1.44 nM
